Patent publication US20140274782A1, “AFFINITY REAGENTS AND METHODS FOR DETECTION, PURIFICATION, AND PROTEOMIC ANALYSIS OF METHYLATED PROTEINS” (The Board of Trustees of the Leland Stanford Junior …, priority 2013, published 2014)

T1: G9a and GLP (Homo sapiens, UniProt Q96KQ7+Q9H9B1)
T1 sequence (Q96KQ7 2-1210 limits assumed): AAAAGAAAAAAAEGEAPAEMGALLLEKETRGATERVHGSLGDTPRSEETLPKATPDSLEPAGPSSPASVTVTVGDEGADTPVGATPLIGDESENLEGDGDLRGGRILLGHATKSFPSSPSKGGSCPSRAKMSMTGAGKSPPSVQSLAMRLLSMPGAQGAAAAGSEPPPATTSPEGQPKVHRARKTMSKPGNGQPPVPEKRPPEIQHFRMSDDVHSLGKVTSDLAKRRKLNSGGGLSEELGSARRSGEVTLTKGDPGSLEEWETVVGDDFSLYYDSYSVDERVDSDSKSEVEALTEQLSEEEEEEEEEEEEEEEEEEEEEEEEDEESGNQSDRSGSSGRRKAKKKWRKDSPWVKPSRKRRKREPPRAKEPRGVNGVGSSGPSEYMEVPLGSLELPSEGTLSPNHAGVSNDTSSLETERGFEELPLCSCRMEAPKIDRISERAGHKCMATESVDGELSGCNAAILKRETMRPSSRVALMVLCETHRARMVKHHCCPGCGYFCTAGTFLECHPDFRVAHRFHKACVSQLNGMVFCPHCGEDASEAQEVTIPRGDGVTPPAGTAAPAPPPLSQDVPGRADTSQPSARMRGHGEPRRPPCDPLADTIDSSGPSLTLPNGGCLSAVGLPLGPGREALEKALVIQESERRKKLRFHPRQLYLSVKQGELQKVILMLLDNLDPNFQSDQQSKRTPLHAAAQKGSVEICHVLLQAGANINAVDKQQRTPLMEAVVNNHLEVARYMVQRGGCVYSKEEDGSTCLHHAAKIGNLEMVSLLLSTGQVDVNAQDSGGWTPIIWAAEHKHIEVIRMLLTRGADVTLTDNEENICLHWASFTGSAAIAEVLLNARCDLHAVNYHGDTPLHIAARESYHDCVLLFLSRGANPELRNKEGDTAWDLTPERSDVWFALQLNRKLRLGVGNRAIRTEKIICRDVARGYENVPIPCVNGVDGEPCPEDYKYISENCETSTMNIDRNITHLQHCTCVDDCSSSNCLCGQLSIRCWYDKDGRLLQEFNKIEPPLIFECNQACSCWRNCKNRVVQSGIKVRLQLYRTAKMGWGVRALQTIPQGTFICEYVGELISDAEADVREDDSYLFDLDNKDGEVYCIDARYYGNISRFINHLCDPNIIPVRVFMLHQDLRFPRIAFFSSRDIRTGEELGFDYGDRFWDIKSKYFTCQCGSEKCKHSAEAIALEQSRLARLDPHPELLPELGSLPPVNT
T1 sequence (Q9H9B1 2-1298 limits assumed): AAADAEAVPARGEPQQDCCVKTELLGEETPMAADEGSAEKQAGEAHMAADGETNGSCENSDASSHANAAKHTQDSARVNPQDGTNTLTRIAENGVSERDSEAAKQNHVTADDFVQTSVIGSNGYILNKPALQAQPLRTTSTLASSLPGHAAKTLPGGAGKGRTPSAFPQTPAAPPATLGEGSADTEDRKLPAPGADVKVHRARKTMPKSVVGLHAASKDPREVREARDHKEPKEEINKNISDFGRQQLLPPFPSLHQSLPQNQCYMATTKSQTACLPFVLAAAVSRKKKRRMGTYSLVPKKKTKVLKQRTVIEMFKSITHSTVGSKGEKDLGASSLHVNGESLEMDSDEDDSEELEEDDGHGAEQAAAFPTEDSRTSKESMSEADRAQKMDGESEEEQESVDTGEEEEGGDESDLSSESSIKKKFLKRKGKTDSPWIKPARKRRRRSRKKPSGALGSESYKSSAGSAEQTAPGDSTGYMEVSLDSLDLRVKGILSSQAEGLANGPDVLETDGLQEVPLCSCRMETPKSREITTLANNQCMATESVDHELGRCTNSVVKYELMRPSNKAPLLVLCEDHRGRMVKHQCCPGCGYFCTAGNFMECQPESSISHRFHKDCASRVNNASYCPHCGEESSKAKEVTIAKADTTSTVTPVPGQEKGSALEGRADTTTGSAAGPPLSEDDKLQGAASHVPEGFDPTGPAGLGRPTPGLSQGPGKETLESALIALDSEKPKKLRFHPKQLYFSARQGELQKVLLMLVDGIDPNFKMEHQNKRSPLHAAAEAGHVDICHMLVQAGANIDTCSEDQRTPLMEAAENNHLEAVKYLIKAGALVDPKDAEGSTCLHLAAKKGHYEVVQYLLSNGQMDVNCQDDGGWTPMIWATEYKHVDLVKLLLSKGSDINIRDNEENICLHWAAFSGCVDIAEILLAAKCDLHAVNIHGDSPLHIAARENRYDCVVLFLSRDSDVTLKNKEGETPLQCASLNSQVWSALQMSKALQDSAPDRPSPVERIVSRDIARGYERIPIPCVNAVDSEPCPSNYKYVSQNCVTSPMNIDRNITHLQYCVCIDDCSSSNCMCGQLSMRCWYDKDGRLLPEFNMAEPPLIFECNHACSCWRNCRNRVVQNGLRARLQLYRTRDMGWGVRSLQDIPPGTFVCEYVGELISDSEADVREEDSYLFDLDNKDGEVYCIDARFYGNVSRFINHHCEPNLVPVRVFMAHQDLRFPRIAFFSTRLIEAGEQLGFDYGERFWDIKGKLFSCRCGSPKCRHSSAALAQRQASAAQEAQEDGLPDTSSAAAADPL


Assays:
3×MBT domain of L3MBTL1 = test: Triple SILAC pull-down, 3xMBT/3xMBTD355N ratio (cytoplasmic, nuclear and chromatin fractions of 293T cells); format: binding, human; details: SILAC ratio, pull-down by 3xMBT vs 3xMBTD355N, 293T cells;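 further: proteins quantified with MaxQuant, requiring at least two unique peptides and quantification in both label directions, normalized to the mean of proteins from a digested loading control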
G9a and GLP = target: T1, G9a and GLP; test: Triple SILAC pull-down after UNC0638 treatment of 293T cells, DMSO/UNC0638 ratio of protein captured by 3×MBT; format: cell-based; parameters: cells were treated for 24 hours with UNC0638 at 2.5 μM or DMSO vehicle control; endogenous in cells; host or cells: HEK 293T; details: SILAC ratio of protein captured by 3xMBT, 293T cells treated 24 hours with UNC0638 at 2.5 μM or DMSO;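 further: mass spectrometry (Q-Exactive) SILAC quantitation, DMSO/UNC0638 ratio computed after subtracting 3×MBTD355N mutant pull-down background, only proteins with at least twofold 3×MBT over mutant signal considered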

Molecule | Protein Ratios 3xMBT/D355N (3×MBT domain of L3MBTL1) | Protein Ratios DMSO/UNC0638 (G9a and GLP)
Probable ATP-dependent RNA helicase DDX23 (protein, UniProt Q9BUQ8 1-820, looked up) Probable ATP-dependent RNA …: MAGELADKKDRDASPSKEERKRSRTPDRERDRDRDRKSSPSKDRKRHRSRDRRRGGSRSRSRSRSKSAERERRHKERERDKERDRNKKDRDRDKDGHRRDKDRKRSSLSPGRGKDFKSRKDRDSKKDEEDEHGDKKPKAQPLSLEELLAKKKAEEEAEAKPKFLSKAEREAEALKRRQQEVEERQRMLEEERKKRKQFQDLGRKMLEDPQERERRERRERMERETNGNEDEEGRQKIREEKDKSKELHAIKERYLGGIKKRRRTRHLNDRKFVFEWDASEDTSIDYNPLYKERHQVQLLGRGFIAGIDLKQQKREQSRFYGDLMEKRRTLEEKEQEEARLRKLRKKEAKQRWDDRHWSQKKLDEMTDRDWRIFREDYSITTKGGKIPNPIRSWKDSSLPPHILEVIDKCGYKEPTPIQRQAIPIGLQNRDIIGVAETGSGKTAAFLIPLLVWITTLPKIDRIEESDQGPYAIILAPTRELAQQIEEETIKFGKPLGIRTVAVIGGISREDQGFRLRMGCEIVIATPGRLIDVLENRYLVLSRCTYVVLDEADRMIDMGFEPDVQKILEHMPVSNQKPDTDEAEDPEKMLANFESGKHKYRQTVMFTATMPPAVERLARSYLRRPAVVYIGSAGKPHERVEQKVFLMSESEKRKKLLAILEQGFDPPIIIFVNQKKGCDVLAKSLEKMGYNACTLHGGKGQEQREFALSNLKAGAKDILVATDVAGRGIDIQDVSMVVNYDMAKNIEDYIHRIGRTGRAGKSGVAITFLTKEDSAVFYELKQAILESPVSSCPPELANHPDAQHKPGTILTKKRREETIFA | 4.8 | 1.3
Protein syndesmos (protein, UniProt Q9BRJ7 1-211, looked up) Tudor-interacting repair …: MSTAAVPELKQISRVEAMRLGPGWSHSCHAMLYAANPGQLFGRIPMRFSVLMQMRFDGLLGFPGGFVDRRFWSLEDGLNRVLGLGLGCLRLTEADYLSSHLTEGPHRVVAHLYARQLTLEQLHAVEISAVHSRDHGLEVLGLVRVPLYTQKDRVGGFPNFLSNAFVSTAKCQLLFALKVLNMMPEEKLVEALAAATEKQKKALEKLLPASS | 3.5 | 1.3
Heterogeneous nuclear ribonucleoprotein L (protein, UniProt P14866 1-589, looked up) Heterogeneous nuclear …: MSRRLLPRAEKRRRRLEQRQQPDEQRRRSGAMVKMAAAGGGGGGGRYYGGGSEGGRAPKRLKTDNAGDQHGGGGGGGGGAGAAGGGGGGENYDDPHKTPASPVVHIRGLIDGVVEADLVEALQEFGPISYVVVMPKKRQALVEFEDVLGACNAVNYAADNQIYIAGHPAFVNYSTSQKISRPGDSDDSRSVNSVLLFTILNPIYSITTDVLYTICNPCGPVQRIVIFRKNGVQAMVEFDSVQSAQRAKASLNGADIYSGCCTLKIEYAKPTRLNVFKNDQDTWDYTNPNLSGQGDPGSNPNKRQRQPPLLGDHPAEYGGPHGGYHSHYHDEGYGPPPPHYEGRRMGPPVGGHRRGPSRYGPQYGHPPPPPPPPEYGPHADSPVLMVYGLDQSKMNCDRVFNVFCLYGNVEKVKFMKSKPGAAMVEMADGYAVDRAITHLNNNFMFGQKLNVCVSKQPAIMPGQSYGLEDGSCSYKDFSESRNNRFSTPEQAAKNRIQHPSNVLHFFNAPLEVTEENFFEICDELGVKRPSSVKVFSGKSERSSSGLLEWESKSDALETLGFLNHYQMKNPNGPYPYTLKLCFSTAQHAS | 2.4 | 1.3
